Assay results published in article PMC11661148.

Molecular target: Gal4-SNAP-VP16 labeled with SNAP-Surface-649 (S. cerevisiae | herpes simplex virus) (UniProt P04386)
Assay: colocalization single-molecule spectroscopy

With “Mediator complex with Med7-HA-SNAP labeled with SNAP-Surface-549 (from UniProt Q08278 1-222)” the duration of individual binding events (at 10 nM Gal4-VP16^649) was 1 s.
